Experimental data: PMC5405039, “Genome-wide identification of grain filling genes regulated by the OsSMF1 transcription factor in rice”

T1: OsSMF1 (RISBZ1, OsbZIP58)-DsRed fusion (Oryza sativa cv. Ilmi, UniProt Q6ZLB0 1-436)
T1 sequence: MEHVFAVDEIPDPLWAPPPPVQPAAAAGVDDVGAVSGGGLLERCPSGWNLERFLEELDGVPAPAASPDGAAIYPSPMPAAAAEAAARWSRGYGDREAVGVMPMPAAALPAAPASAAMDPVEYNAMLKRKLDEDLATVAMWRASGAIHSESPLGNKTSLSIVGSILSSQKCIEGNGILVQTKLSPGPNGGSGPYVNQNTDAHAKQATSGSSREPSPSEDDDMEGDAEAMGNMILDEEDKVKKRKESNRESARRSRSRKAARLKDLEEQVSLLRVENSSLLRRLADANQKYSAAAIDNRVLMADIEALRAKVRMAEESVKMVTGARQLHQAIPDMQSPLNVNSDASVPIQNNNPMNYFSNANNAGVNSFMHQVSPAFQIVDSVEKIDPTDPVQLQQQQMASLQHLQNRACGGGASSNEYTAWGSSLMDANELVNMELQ


Target: T1, OsSMF1 (RISBZ1, OsbZIP58)-DsRed fusion
Assay: EMSA (SYBR Gold); 5 mM MgCl2; Kd EMSA: 10 mM Tris, 50 mM KCl, 1 mM DTT pH 7.5, 50 ng/ul poly(dI-dC), 2.5% glycerol, 0.05% NP-40, 5 mM MgCl2, 0.2 ug/ul OsSMF1, DNA 0-6 uM, 1 h room temperatur
Settings: protein: recombinant; tags: DsRed fusion; Ni-NTA purified; chain copies: 2; SYBR Gold stain (Kd); 21 bp

Binder | Kd
ACGT 21-bp wild type (dsDNA) DNA 1: AAGCGCCACGTCAGCCAAAAC DNA 2: GTTTTGGCTGACGTGGCGCTT | 335 nM
GCN4 21-bp wild type (dsDNA) DNA 1: GTTTGTCATGGCTGAGTCATG DNA 2: CATGACTCAGCCATGACAAAC | 646 nM
ATGA 21-bp wild type (dsDNA) DNA 1: CTGATTCGGATGACGGACGAA DNA 2: TTCGTCCGTCATCCGAATCAG | 1120 nM
